For one experiment, the target named is calmodulin (Bos taurus) (UniProt P62157). To be noted: cited from earlier work.
Experiment [1] deals with light-activated unphosphorylated rhodopsin (UniProt P02699 1-348, light-activated).
Chain of light-activated unphosphorylated rhodopsin (P02699 whole entry): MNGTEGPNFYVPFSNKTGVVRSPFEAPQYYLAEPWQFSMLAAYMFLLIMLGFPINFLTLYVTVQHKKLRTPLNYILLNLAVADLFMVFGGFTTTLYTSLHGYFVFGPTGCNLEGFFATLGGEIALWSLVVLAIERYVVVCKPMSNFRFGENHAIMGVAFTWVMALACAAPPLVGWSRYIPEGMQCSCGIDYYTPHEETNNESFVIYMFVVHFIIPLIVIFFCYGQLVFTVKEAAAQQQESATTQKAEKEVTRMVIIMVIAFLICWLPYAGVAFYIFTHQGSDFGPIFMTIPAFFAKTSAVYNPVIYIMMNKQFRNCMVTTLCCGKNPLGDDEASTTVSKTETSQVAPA

Regarding arrestin-1 (from UniProt P08168), the Kd with calmodulin (Bos taurus) was 7 µM.

B1: arrestin-1 3A+R175E combination mutant (natural protein, UniProt P08168 1-404, looked up)
chain: MKANKPAPNHVIFKKISRDKSVTIYLGKRDYIDHVERVEPVDGVVLVDPELVKGKRVYVSLTCAFRYGQEDIDVMGLSFRRDLYFSQVQVFPPVGASGATTRLQESLIKKLGANTYPFLLTFPDYLPCSVMLQPAPQDVGKSCGVDFEIKAFATHSTDVEEDKIPKKSSVRLLIEKVQHAPRDMGPQPRAEASWQFFMSDKPLRLAVSLSKEIYYHGEPIPVTVAVTNSTEKTVKKIKVLVEQVTNVVLYSSDYYIKTVAAEEAQEKVPPNSSLTKTLTLVPLLANNRERRGIALDGKIKHEDTNLASSTIIKEGIDKTVMGILVSYQIKVKLTVSGLLGELTSSEVATEVPFRLMHPQPEDPDTAKESFQDENAAAEEFARQNLKDAGEYKEEKTDQEAAMDE
For B1, in experiment [1], the “percent of the maximum binding achieved at 37°C” value was 26%.

Broadly, the Kd is the constant that tells how readily two partners part at equilibrium.

The values above are taken from paper PMC3196764 (Progress in retinal and eye research, 2011).
